Patent publication US20150125397A1, “DUAL SPECIFIC BINDING PROTEINS DIRECTED AGAINST IMMUNE CELL RECEPTORS AND AUTOANTIGENS” (ABBVIE INC., priority 2013, published 2015)
Entries after “also recorded” stand apart in the source; their conditions may differ.

Key:
Type in all cases: cell-based, mouse
[1] = tested on: RF B cells; assay: Proliferation of B220+ B cells, RF (AM14)
Method: (§1) Proliferation of B220+ B cells: B cells were purified by magnetic bead separation using CD45R/B220-conjugated magnetic particles (BD Biosciences, San Jose, Calif., USA) and stimulated as described previously (Nundel et al. (2013) J. Leukoc. Biol. 94:865-875) with 15 μg/ml goat anti-mouse IgM F(ab′)2 (Jackson ImmunoResearch), ODN1826 (CpG; Idera Pharmaceuticals), anti-DNA-mAb (Leadbetter et al. (2002) Nature 416:603-607), or DVD-Ig proteins (1 μg/ml). B cell proliferation was assessed by ^3H-thymidine (Amersham Biosciences, Piscataway, N.J., USA) incorporation at 24 hours post-stimulation. For long-term proliferation assays, B220-purified B cells were labeled with a final concentration of 2.5 μM CFSE (Life Technologies) in PBS for 2 minutes. The cells were then washed and cultured for 72 hours in the presence of BLyS (Human Genome Sciences).
(§2) FACS for B cells: Multicolor flow cytometry analysis was carried out using a BD LSR II with DIVA software (BD Biosciences). Analysis was conducted with FlowJo software (Tree Star, Ashland, Oreg., USA) Immature and mature B cell ratios were determined using Pacific Blue-B220 and APC-AA4.1 (eBioscience). Dead cells and debris were excluded by forward- and side-scatter. Proliferation was assessed by CFSE dilution. Cell death was ascertained using the DNA stain TO-PRO-3 (Life Technologies) at a final concentration of 20 nM.

[2] = tested on: RF Tlr9−/− or BALB/c Tlr9−/− B cells; assay: Proliferation of B220+ B cells, Tlr9-/-; conditions: 3H-thymidine 24 hours, CFSE 72 hours; FIG. 9
Method: as §1, §2

[3] = tested on: BALB/c B cells; assay: Proliferation of B220+ B cells, non-Tg BALB/c; conditions: 3H-thymidine 24 hours, CFSE 72 hours; FIG. 8D, 9
Method: as §1, §2

[4] = tested on: Primary murine B cells; assay: CFSE dilution / Sytox Blue FACS of primary murine B cells; conditions: 72 hours, FIG. 3
Method: Primary murine B cells were purified by positive selection as described above. For cultures >48 hours old, proliferation was quantified by carboxyfluorescein diacetate, succinimidyl ester (CFSE) dilution and cell death by TO-PRO-3 binding. To label the cells with CFSE, the cells were first washed 2 times with PBS. Next, the stock of CFSE was diluted to 10 μM in PBS and the cells were brought to 1×10^7 cells/ml. The cells were mixed at a 1:1 ratio with 10 μM CFSE and mixed gently for 2 minutes. The CFSE labeling reaction was stopped by adding heat inactivated fetal calf serum equal in volume to the starting volume for the cell suspension. […] Proliferation was measured by fluorophore dilution at 60-72 hours by flow cytometry. […]
Primary murine B cells were labeled and prepared as in Example 2.7 and stimulated with either media alone, […] of TLR9 ligand CpG oligodeoxynucleotide (ODN) 1826, […] of the mouse anti-chromatin autoantibody PL2-3 or […] DVD3759 in the presence or absence of […] of the B cell survival factor BLyS. After 72 hours, cells were stained with 1 μM of the cell permeable DNA stain Sytox Blue and analyzed by fluorescence activated cell sorting (FACS). Cell division was determined by dilution of CFSE and dead cells were identified by staining with Sytox Blue.

Molecule	level of activation compared with anti-DNA mAb ([1]; FIG. 9A,B)	activation / proliferation of RF B cells ([1]; Tlr9+/+, 3H-thymidine 24 hours, CFSE 72 hours, FIG. 9)	proliferation of Tlr9−/− B cells [2]	activation / proliferation of non-Tg BALB/c B cells [3]	effect of addition of BLyS on cell death ([4]; 0.05 mg/ml BLyS)	cell division (CFSE dilution) and cell death (Sytox Blue) ([4]; absence of BLyS)
DVD3754: DVD-Ig: VD1 DNA(PA4), SL linker, VD2 mIgM (B7.6); heavy SEQ ID NO 54, light 55 (antibody) heavy: EVQLVESGGGLVKPGGSLKLSCVASGFTFSTYAMSWVRQTPTKRLEWVATISRGGVSTYYPDTVKGRFTISRDNAKNTLYLQMSSLRSEDTAMYYCARPPTIVTTWFAYWGQGTLVTVSSASTKGPQVQLKESGPGLVKPSLTLSLTCTVSGFSLNGYGVIWVRQPPGKGLEWMGVIWGNGNTNYNSTLKSRLSISRDTSKSQVFLKMNNLQTEDTAMYFCARSENYYSSPGYFAYWGQGTLVTVSS light: DVVMTQTPLSLPVSLGDQASISCRSSQSLVHSNGNTYLHWYLQKPGQSPKLLIYKVSNRFSGVPDRFSGSGSGTDFTLKISRVEAEDLGAYFCSQSTHVPYTFGGPTRLEIKRTVAAPSVFIFPPNTVMTQSPTSMFISVGDRVTMNCKASQNVGSDVDWYQQKTGQSPKLLISGTSNRYTGVPDRFTGSGSGTDFTLTISNMQAEDLAVYYCLQYNYNPTFGAGTKLELKR	comparable	induced both RF and non-Tg BALB/c B cells	not RF Tlr9^−/− or BALB/c Tlr9^−/− B cells	stimulated BALB/c B cells more strongly than the rest; also recorded: induced both RF and non-Tg BALB/c B cells	–	–
DVD3759: DVD-Ig: VD1 mIgM (B7.6), SL linker, VD2 DNA(PA4); heavy SEQ ID NO 64, light 65 (antibody) heavy: QVQLKESGPGLVKPSLTLSLTCTVSGFSLNGYGVIWVRQPPGKGLEWMGVIWGNGNTNYNSTLKSRLSISRDTSKSQVFLKMNNLQTEDTAMYFCARSENYYSSPGYFAYWGQGTLVTVSSASTKGPEVQLVESGGGLVKPGGSLKLSCVASGFTFSTYAMSWVRQTPTKRLEWVATISRGGVSTYYPDTVKGRFTISRDNAKNTLYLQMSSLRSEDTAMYYCARPPTIVTTWFAYWGQGTLVTVSS light: NTVMTQSPTSMFISVGDRVTMNCKASQNVGSDVDWYQQKTGQSPKLLISGTSNRYTGVPDRFTGSGSGTDFTLTISNMQAEDLAVYYCLQYNYNPTFGAGTKLELKRTVAAPSVFIFPPDVVMTQTPLSLPVSLGDQASISCRSSQSLVHSNGNTYLHWYLQKPGQSPKLLIYKVSNRFSGVPDRFSGSGSGTDFTLKISRVEAEDLGAYFCSQSTHVPYTFGGPTRLEIKR	–	–	–	–	could be rescued	induced several rounds of division followed by post-proliferative cell death
